Data on eleven molecules can be found in publication PMC11046469, “Leveraging a Phage-Encoded Noncanonical Amino Acid: A Novel Pathway to Potent and Selective Epigenetic Reader Protein Inhibitors” (ACS Central Science, 2024).

Assay [1] has as its target T1, ENL YEATS domain (His-ENL YEATS) (Homo sapiens, UniProt Q03111).
T1 construct: (aa 1−148) was cloned in pET19b; made in house; host or cells: E. coli BL21(DE3pLysS)
T1 sequence (Q03111 1-148): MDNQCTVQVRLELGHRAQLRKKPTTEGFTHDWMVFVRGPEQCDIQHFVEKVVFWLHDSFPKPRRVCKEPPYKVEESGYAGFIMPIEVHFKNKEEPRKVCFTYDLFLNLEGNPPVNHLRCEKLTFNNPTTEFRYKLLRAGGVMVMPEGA
Description: AlphaScreen inhibition of ENL YEATS binding to biotinylated H3K27cr peptide. Particulars: mean ± SD, n = 3. An excerpt: (§1) To test the inhibition potency of the two selected peptides for the ENL YEATS domain, ENL-S1 and ENL-S2 were chemically synthesized through solid-phase peptide synthesis (SPPS) and evaluated by an AlphaScreen assay. In this assay, a biotinylated H3K27cr peptide and a 6xHis-tagged ENL YEATS domain (His-ENL YEATS) were immobilized on PerkinElmer streptavidin donor and nickel-chelating (Ni-NTA) acceptor beads, respectively. The use of a His-ENL YEATS instead of the original AviSUMO-ENL YEATS construct in the assay prevents potential false positive results derived from ligands which bind to the SUMO protein but not to the ENL YEATS domain. […] We then assessed the binding affinity of two ligands for the ENL YEATS domain using biolayer interferometry (BLI). Briefly, His-ENL was immobilized onto Ni-NTA functionalized biosensors to measure the binding kinetics of target peptides at different concentrations. […] As a small peptide directly selected from a phage display library, this level of high potency was unexpected. […] However, shorter-than-10-mer linear peptides with nanomolar binding potency have rarely been directly selected from phage display libraries. One example was S2P03, a 7-mer peptide that has a KD value as 49 ± 9 nM to bind to SIRT2.[10] This peptide contained BuK and was identified also from a BuK-containing phage display library using the active site-directed ligand selection technique. Taken together, the two examples confirmed that utilizing phage display libraries incorporated with a ncAA serving as a ligand for a protein target for active site-directed ligand selection is a successful method for identifying ultrahigh potency ligands for epigenetic proteins including both enzymes and readers. For ENL-S1 and ENL-S2, their determined kon and koff values were 6.23 ± 0.07 × 10^4 M^–1 s^–1, […] and […], 5.54 ± 0.02 × 10^–3 s^–1, respectively. Compared to ENL-S2, ENL-S1 has faster binding to the ENL YEATS domain and slower release from it, indicating its potential long-term action on the ENL YEATS inhibition. […]
Characterization of Selected Peptide Inhibitors
AlphaScreen Assay to Validate ENL Inhibitors:
His-ENL, His-AF9 (aa 1-149, EpiCypher), and biotinylated H3K27cr (aa 15-33, EpiCypher) were used to assay the synthesized inhibitors. The lyophilized peptide inhibitors were dissolved in DMF […]
and serially diluted into assay buffer (50 mM HEPES, 100 mM NaCl, 0.1% BSA, 0.05% CHAPS, pH 7.4) and incubated in the presence of 120 nM His-tagged protein at 37 °C for 30 minutes. 12.5 μL of biotinylated H3K27cr (400 nM) was aliquoted into a light gray 384-well Alphaplate (Perkin Elmer) and incubated at 37 °C. 12.5 μL of the inhibitor/protein solution was added to the H3K27cr solution, and incubated for 30 minutes at 37 °C. 25 μL of AlphaScreen histidine (nickel chelate) detection beads (Perkin Elmer) was added at 20 μg/mL each bead (streptavidin donor beads and nickel chelate acceptor beads), and the plate was incubated at 37 °C for 30 minutes. The plate was cooled to room temperature for 10 minutes, and then the beads were excited at 680 nm and the luminescence at 615 nm was read. […]
Biolayer […]
interferometry assays were performed in 96 well plates (GreinerBio-One, polypropylene, flat-bottom) using an Octet Red96 System (Sartorius). Wells were filled with 200 μL of assay buffer, blocking buffer (assay buffer + 0.1% BSA), protein solution, peptide solution, regeneration solution, and reload solution. For immobilization, His-tagged proteins were immobilized onto Ni-NTA sensors at 20 for 600 s. Sensors were then dipped into blocking buffer for 180 s, assay […] buffer for 300 s, peptide solution for 300 s, and back to assay buffer for 300 s. If multiple samples were tested, Ni-NTA sensors can be reconditioned in regeneration (10 mM glycine, pH 1.7) solution followed by reload solution (10 mM NiCl2) for 30 and 60 s, respectively. Measurements […]
For orientation: Bead proximity is the source of the signal in Alpha formats.

Assay [2] deals with T2, ENL YEATS domain (His-ENL) (Homo sapiens, UniProt Q03111).
T2 construct: (aa 1−148) was cloned in pET19b; made in house; host or cells: E. coli BL21(DE3pLysS)
T2 sequence (Q03111 1-148): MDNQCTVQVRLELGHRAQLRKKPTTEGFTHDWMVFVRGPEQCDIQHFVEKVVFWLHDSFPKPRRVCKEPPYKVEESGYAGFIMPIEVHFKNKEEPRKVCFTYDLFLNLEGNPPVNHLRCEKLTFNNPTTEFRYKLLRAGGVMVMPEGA
Description: Biolayer interferometry (BLI) binding to ENL YEATS. Particulars: BLI.
Text: as §1
Biolayer Interferometry to Validate ENL Ligands:
His-ENL, His-AF9 (aa 1-149, EpiCypher), His-GAS41 (aa 15-160, EpiCypher), and YEATS2-His (aa 200-345, EpiCypher) were reconstituted in water and diluted into assay buffer (20mM Tris, 300 mM NaCl, pH 7.9) for immobilization onto Octet Ni-NTA biosensors (Sartorius). Lyophilized peptides were dissolved in DMF and diluted to designated concentrations in assay buffer. Biolayer interferometry assays were performed in 96 well plates (GreinerBio-One, polypropylene, flat-bottom) using an Octet Red96 System (Sartorius). Wells were filled with 200 μL of assay buffer, blocking buffer (assay buffer + 0.1% BSA), protein solution, peptide solution, regeneration solution, and reload solution. For immobilization, His-tagged proteins were immobilized onto Ni-NTA sensors at 20 for 600 s. Sensors were then dipped into blocking buffer for 180 s, assay […] buffer for 300 s, peptide solution for 300 s, and back to assay buffer for 300 s. If multiple samples were tested, Ni-NTA sensors can be reconditioned in regeneration (10 mM glycine, pH 1.7) solution followed by reload solution (10 mM NiCl2) for 30 and 60 s, respectively. Measurements were carried out at 30 °C. Data were analyzed within the ForteBio Data Analysis software. Data were processed by double subtracting ligand only and protein only reference wells and aligning the data to the beginning of the association. Then, global kinetic fit was performed for all sensogram curves with a 1:1 model. Steady state KD values were reported.
AlphaScreen Assay with Biotinylated-ENL-S1:
The AlphaScreen assay was carried out in 384-well plates. Manual assay setup was performed in a 40 uL reaction buffer (50 mM HEPES pH 7.4, 100 mM NaCl, 0.1% bovine serum albumin, and 0.05% CHAPS). 10 µL of varying concentrations of His-ENL YEATS (0-300 nM) and 10 µL of […]
(In BLI a coated tip is dipped into the sample, and binding shifts an interference pattern.)

For assay [3], the target named is T3, 6xHis-tagged ENL YEATS domain, Q03111.
T3 chain: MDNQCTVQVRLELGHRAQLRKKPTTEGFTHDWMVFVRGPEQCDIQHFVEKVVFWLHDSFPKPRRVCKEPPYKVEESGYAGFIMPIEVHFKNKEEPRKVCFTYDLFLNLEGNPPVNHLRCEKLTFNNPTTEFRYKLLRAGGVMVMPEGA
Description: AlphaScreen. Particulars: chain shown with the change; n = 3; parent: 62.6 nM.

For assay [4], the target named is T4, AF9 YEATS domain (human, UniProt P42568 1-138).
T4 chain: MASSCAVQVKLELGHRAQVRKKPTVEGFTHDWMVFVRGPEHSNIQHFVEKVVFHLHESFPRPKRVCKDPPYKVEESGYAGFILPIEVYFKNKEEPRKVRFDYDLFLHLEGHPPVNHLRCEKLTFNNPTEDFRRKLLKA
Description: AlphaScreen or HTRF; competition: AF9 YEATS and its corresponding acylated histone peptide; test peptide varied; n = 3.

The target of assay [5] is T4, AF9 YEATS domain.
The target of assay [6] is T5, 6xHis-tagged ENL YEATS domain (human, UniProt Q03111 1-148).
T5 chain: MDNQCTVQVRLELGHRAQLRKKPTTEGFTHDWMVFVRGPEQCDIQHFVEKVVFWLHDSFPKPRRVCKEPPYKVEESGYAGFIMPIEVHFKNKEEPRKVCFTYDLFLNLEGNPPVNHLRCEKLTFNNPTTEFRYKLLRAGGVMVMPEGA
Description: AlphaScreen or HTRF; competition: biotinylated H3K27cr peptide on streptavidin donor beads, His-ENL YEATS on nickel-chelating (Ni-NTA) acceptor beads; test peptide varied; n = 3.

Where a SMILES comes first, the peptide text is derived from it. Where no end group is shown, it is not given here. The star is where a group is joined. Oxazole(5-CO) = O=C(c1cnco1)*; Crotonyl(E) = C/C=C/C(=O)*; 2Furoyl = O=C(c1ccco1)*; Butyryl = CCCC(=O)* A value given as a limit tells only on which side of the number the result lay.

A word on the IC50: it is the concentration that inhibits the measured activity by half. As a reminder, the Kd is the concentration at which binding is half-saturated. Lower therefore signals higher affinity. As usually defined, the koff is the first-order rate constant of dissociation.

Consider `CCCC(=O)NCCCC[C@H](NC(=O)[C@H](Cc1ccc(O)cc1)NC(=O)[C@H](C)NC(=O)[C@H](Cc1ccc(O)cc1)NC(=O)[C@@H](NC(=O)[C@H](CC(=O)O)NC(=O)[C@@H](N)Cc1ccc(O)cc1)C(C)C)C(N)=O` [ENL-S1A5] (H-YDVYAYK(Butyryl)-NH2; N-terminus assumed), for which the IC50 in assay [1] was more than 2000 nM.

Consider `CCCC(=O)NCCCC[C@H](NC(=O)[C@H](CCC(=O)O)NC(=O)[C@@H](NC(=O)[C@@H](NC(=O)[C@H](Cc1c[nH]c2ccccc12)NC(=O)[C@@H](N)Cc1c[nH]c2ccccc12)[C@@H](C)CC)[C@@H](C)CC)C(=O)NCC(N)=O` [ENL-S2] (H-WWIIEK(Butyryl)G-NH2; N-terminus assumed), for which the IC50 in assay [1] was 1220 nM. For the same molecule, in assay [2], the affinity, expressed as Kd, was 881 ± 9 nM and the koff was determined as 0.00554 s⁻¹.

`CCCC(=O)NCCCC[C@H](NC(=O)[C@H](Cc1ccc(O)cc1)NC(=O)[C@H](CS)NC(=O)[C@H](Cc1ccc(O)cc1)NC(=O)[C@H](C)NC(=O)[C@H](CC(=O)O)NC(=O)[C@@H](N)Cc1ccc(O)cc1)C(N)=O` [ENLS1A3] (H-YDAYCYK(Butyryl)-NH2; N-terminus assumed) returned an IC50 in assay [1] of more than 5000 nM.

B1: ENL-S1 Y4A (peptide)
chain: YDVACYK
B1: the IC50 in assay [3] turned out to be 718 nM.

B2: ENL-S1c (peptide)
chain: YDVYCYK(Crotonyl(E))
With B2, the fold lower potency (IC50) toward AF9 YEATS than toward ENL YEATS in assay [4] amounted to 18 fold. In assay [5], this molecule displayed an IC50 of 347 nM.

B3: ENL-S1 D2A (peptide)
chain: YAVYCYK
Regarding B3, the 50% inhibitory concentration (IC50) in assay [3] is 52.2 nM.

B4: ENL-S1o (peptide)
chain: YDVYCYK(Oxazole(5-CO))
With B4, the values for the IC50 in assay [6] and in assay [5] were 10 nM and 231 nM, respectively. In assay [4], this molecule had a fold lower potency (IC50) toward AF9 YEATS than toward ENL YEATS of 23 fold.

B5: ENL-S1 C5A (peptide)
chain: YDVYAYK
In the case of B5, the IC50 in assay [3] was more than 2000 nM.

B6: ENL-S1f (peptide)
chain: YDVYCYK(2Furoyl)
For the molecule B6, the IC50 in assay [6] was 22 nM; in assay [5], 168 nM. Also, the fold lower potency (IC50) toward AF9 YEATS than toward ENL YEATS in assay [4] was found to be 7.7 fold.

B7: ENL-S1 V3A (peptide)
chain: YDAYCYK
For the molecule B7, the IC50 in assay [3] is more than 5000 nM.

B8: ENL-S1 Y1A (peptide)
chain: ADVYCYK
As to B8, the half-maximal inhibitory concentration (IC50) in assay [3] stood at 248 nM.
